Laboratory results published in doi:10.1101/2021.09.09.459598.

Molecular target: soybean QUAC1 from Glycine max (GmQUAC1) (soybean (Glycine max))
Test: cryo-EM structure

stoichiometry N: 2
Substance: soybean QUAC1 from Glycine max (GmQUAC1) (natural protein)
